doi:10.1101/2021.05.25.445634

Molecular target: TnsC of the type V-K CRISPR-associated transposase system from S. hofmanni (ShCAST) (S. hofmanni)
Experiment: cryo-EM structure

- stoichiometry N: 12 subunits
Substance: TnsC of the type V-K CRISPR-associated transposase system from S. hofmanni (ShCAST) (natural protein)
